Reference: publication PMC8058561, “Activity-dependent conformational transitions of the insulin receptor–related receptor” (The Journal of Biological Chemistry, 2021)

Target: the molecule itself
Test: atomic force microscopy; purified full-length IRR in DDM micelles deposited on mica; tapping mode in 150 mM NaCl, 20 mM sodium phosphate, 5% glycerol, pH 7.0 or pH 9.0; single receptor-micelle complexes sorted by the shape of the ectodomain

B1: insulin receptor-related receptor (full-length human IRR with a C-terminal 6xHIS tag) (receptor)
chain 1: VEVCPSLDIRSEVAELRQLENCSVVEGHLQILLMFTATGEDFRGLSFPRLTQVTDYLLLFRVYGLESLRDLFPNLAVIRGTRLFLGYALVIFEMPHLRDVALPALGAVLRGAVRVEKNQELCHLSTIDWGLLQPAPGANHIVGNKLGEECADVCPGVLGAAGEPCAKTTFSGHTDYRCWTSSHCQRVCPCPHGMACTARGECCHTECLGGCSQPEDPRACVACRHLYFQGACLWACPPGTYQYESWRCVTAERCASLHSVPGRASTFGIHQGSCLAQCPSGFTRNSSSIFCHKCEGLCPKECKVGTKTIDSIQAAQDLVGCTHVEGSLILNLRQGYNLEPQLQHSLGLVETITGFLKIKHSFALVSLGFFKNLKLIRGDAMVDGNYTLYVLDNQNLQQLGSWVAAGLTIPVGKIYFAFNPRLCLEHIYRLEEVTGTRGRQNKAEINPRTNGDRAACQTRTLRFVSNVTEADRILLRWERYEPLEARDLLSFIVYYKESPFQNATEHVGPDACGTQSWNLLDVELPLSRTQEPGVTLASLKPWTQYAVFVRAITLTTEEDSPHQGAQSPIVYLRTLPAAPTVPQDVISTSNSSSHLLVRWKPPTQRNGNLTYYLVLWQRLAEDGDLYLNDYCHRGLRLPTSNNDPRFDGEDGDPEAEMESDCCPCQHPPPGQVLPPLEAQEASFQKKFENFLHNAITIPISPWKVTSINKSPQRDSG
chain 2: not shown
notes: alpha subunit (about 100 kDa) of human insulin receptor-related receptor, cut from the single-chain precursor (about 170 kDa); beta subunit (about 70 kDa) of human insulin receptor-related receptor, cut from the single-chain precursor (about 170 kDa); holds the transmembrane segment and the tyrosine kinase domain; Some uncleaved proreceptor (170 kDa) was also seen on the blot; The receptor was …
binding result: binds
